Laboratory results reported in patent EP4818206A1.

Experiments:
[1] = biological target: human CD84 (NCBI Accession No. NP_001171808.1), on cells (human) (UniProt Q9UIB8); test: flow cytometry on HEK293T-hCD84 cells
[2] = biological target: cynomolgus CD84 (NCBI Accession No. XM_005541244.3), on HEK293T cells (cynomolgus); test: flow cytometry on HEK293T-Cyno-CD84 cells

Sequence of UniProt Q9UIB8 (Q9UIB8 22-345): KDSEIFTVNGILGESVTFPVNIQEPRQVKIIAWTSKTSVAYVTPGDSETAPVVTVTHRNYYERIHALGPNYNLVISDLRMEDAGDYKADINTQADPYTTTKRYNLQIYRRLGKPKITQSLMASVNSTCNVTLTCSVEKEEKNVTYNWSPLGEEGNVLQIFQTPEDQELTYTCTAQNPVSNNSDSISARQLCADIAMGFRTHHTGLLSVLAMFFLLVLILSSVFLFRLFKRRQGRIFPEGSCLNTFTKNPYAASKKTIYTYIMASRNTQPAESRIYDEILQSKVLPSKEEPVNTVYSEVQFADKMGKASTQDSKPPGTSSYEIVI

EC50 [1]: 2.09 nM | MFI (max) [1]: 134000 MFI | EC50 [2]: 16.6 nM | MFI (max) [2]: 57700 MFI
Substance: CD84.1.21 (Biolegend; Cat. No. 326002) (antibody)
